Results reported in the nanobody polyreactivity screen of Harvey et al. (2022).

Assay: yeast display, Sf9 membrane polyspecificity reagent, FACS + sequencing; frameworks hold sequencing errors
Procedure, shortened: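 Polyreactivity labels are assigned by the sorting gate from which each nanobody was recovered. The gates were low and high (top ~1%), set on anti-HA fluorescence for expression and streptavidin fluorescence for reagent binding. Before sorting, galactose-induced (36–48 hours) yeast display cells were stained for 1 hour at 4 °C with 10% biotinylated, detergent-solubilized Sf9 membrane reagent.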

Sequence	polyreactivity (PSR sort gate)
QVHLVESGGGLVQAGGSLRLSCPASGSTIRRYAMGWYRQPHGKERELVAAIRQRGTYTYYADSVKGRFTISRDTAKNTVYLQMNSLKPEDTAVYYCSGVPSLWLFNSWGQGTQVTVSS	high polyreactivity
QVQLVESGGGLVQAGGSLRLSCAASGSIFGRNAMGWYRQAPGKERELVAAISSRSDRTYYADSVKGRFTISRDNAKNTVYLQMNSLKPEDTAVYYCAARYGSSQNGYKSDYWGQGTQVTLSS	high polyreactivity
QVQLVESGGGLVQAGGSLRLSCAASGFYNTMGWYRQAPGKERELVAAISTGGITNYADSVKGRFTISRDNAKNTVYVLMNSLKPEDTAVYYCPADGYSTVSSSYAYWGQGTQVTVSS	low polyreactivity
QVQLVESGGGLVQAGGSLRLSCAATGSIFNYYAMGWYRQAPGKERELVATISRGGRTNYADSVKGRFTISRDNAKNTVYLQMNRLKAEETAVYYCAADRYYTYNVYYFSSFVYWGHGTQVTVSS	high polyreactivity
QVQLVESCGGLVQAGGSLRLSCAASGSTFEEYAMGWYRQAPGKERELVASIRWSGGRTYYADSVKGRFTISRDNAKNTVYLQMNRLKPEDTAVYYCNKDYYITLHESEGKGGEMDYWGQGTQVTVSS	low polyreactivity
QVQLVESGGRLVQAGGSLRLSCAASGRIFWGYALGRYRQAHGKVSELVAAITRSGGRTYYADSVKGRFTISRDNAKNTVYLQMTSLKREDTAVYYCNAVNSLQPYKFDYWVQGTQVTVSS	high polyreactivity
QVQLVESGGGLVQAGGSLRLSCAASGRIFGYYAMGWYRQAPGKERELVAAINSGSRTYYADSVKGRFTISRDNAKNTVYLQMISLKAEDTAVYDCAASVRYPPYRSSDGQRGGYWGQGTEVTVSS	high polyreactivity
QVQLVESGGGLVQAGGSLRLICAASGSTFPVNAMGWYRQAPGKERELVAAIRSSTGRTYYADSVKGRFTISRDNAKNTVYLQMNSLKPEDTAVYYCAAYYLGQYEYDYWGQGTQVTVSS	low polyreactivity
QVQLVESGGGLVQAGGSLRLSCAASGSTFFIYAMGWYRQAPGKERELVAAITWRGGTTYYADSVKGRFTISRDNAKNTVYLQMNSLKPEDTAVYYCNADPVDYANIVYYYDYNYWGQGTQVTVSS	low polyreactivity
QVQLVESAGGLVQAGGSLRLSCAASGRIFVTNAMGLYRQAPGKEREFVAGISFSGDGRTYYADSVKGRFTISRDYAKNSVYFQMNSLKPEDTAVYYCAAPHRSRTHELDYWGLGTQVTVSS	low polyreactivity
QVQLVESGGGLVQAGGSLRLSCAASGIIFVSYDMGWYRQAPGKERELVAAINRGGRTYYADSVKGRFTISRDNAKNTVYLQMNSLKAEDTAVYYCAAQFHFRPFSLTYDYWGQGTQLTVSS	high polyreactivity
QVQLVESGGGLVQAGGSLRLSCAASGPIYTYAMGWYRHAPGKERELVAAISRRGGSTYYADSVKGRFTISRDNAKNTVYLQMNSLKPEDTAVYYCAKERSFGDGNFDYEYWGQGTQVTVSS	high polyreactivity
QVQLEESGGGLVQAGGSLRLSCAASGRTFYRYAMGWYRQAPGKERELVATISSRGTSTYYADSVKGRFTISRDNAKNTVYLQMNSLKPEDTAVYYCAVRGYAAGRHGYDYWGQGTQVTVSS	high polyreactivity
QVQLVESGGGLVQAGGSLRLSCAASGRTFAEYAMGWYRQAPGKERELVAAISKRGGSTYYADSVKGRFTISRDNAKNTVYLQMNSLKPEDTAVYYCNKVNRVPSYGHEVGYWGQGTQVTVSS	high polyreactivity
QVQLVESGGGLVQAGGSLRLSCAASGFTFNANARGWYRQAPGKEREVVAVITRSGGRTYYADSVKGRFTISRDNAKNTVYFQMNSLNPEDTAVYYCAKEGPSRVYQGTDCASDSWGHGTQVTVSS	high polyreactivity
QVQLVESGGGLVQAGGSLRLSCAASGGIFSTYTMRWYRQAPGKERELVAAITTGNSTYYADSVKGRFTISRDNAKNTVYLQMNSLKPEDTAVYYCAAFAASRDYYRRLFHDGYDYWGQGTQVTVSS	low polyreactivity
QVQLVESGGGLVQAGGSLRLSCAASGYTFTSNDMGWYRQAPGKERELFAAITRVGSTNYADSVKGRFTISRDNAKNTVYLQMNSLKPEDTAVYYCAADLWQRHYLVGFGIRYDYWGQGTQVTVSS	low polyreactivity
